Data published in patent publication US20110274692A1 (published 2011).

Target: T1, INS/INSR complex (human, UniProt P06213 28-1382; P01308 25-110, limits assumed)
T1 construct: cells carrying INSR pre-exposed to human insulin (150 nM for CHO-K1 hINSR cells); also called R-L; INSR with insulin
Experiment: ratio of the value for R to the value for R-L, Table 2

| Binder | KD ratios (R against R-L) |
| --- | --- |
| Ab001 (antibody, V domains shown) VH: EVQLLESGGGLVQPGGSLRLSCAASGFTFSSYEMNWVRQAPGKGLEWVSSISSSSSYIYYADSVKGRFTISRDNSKNTLYLQMNSLRAEDTAVYYCARVRWYKDSDAFDIWGQGTLVTVSS VL: not shown | 103 |
| Ab079 (antibody, V domains shown) VH: QMQLVQSGAEMKKPGASVKVSCKASGYSFSDYGITWVRQAPGQGPEWMGWISGYNGNTNYAQKFQDRVTMTTDTSTSTAYMELRSLKSDDTAVYFCARARGVWMFDNWGQGTLVTVSS VL: AIRMTQSPSTLSASVGDRVTITCRASQSISTWLAWYQQKPGKAPKLLIYTTSTLESGVPSRFSGSRSGTEFTLTISSLQPDDFATYYCQQYNSYPLTFGGGTKVEIK | 19.4 |
| Ab080 (antibody, V domains shown) VH: EVQLVESGGGVVQPGGSLRLSCAASGFTFDDYAMHWVRQAPGKGLEWVSLISWDGGSTYYADSVKGRFTISRDNSKNSLYLQMNSLRAEDTALYYCAKARGVVIIDYWGQGTLVTVSS VL: EIVLTQSPGTLSLSPGERATLSCRASQSLSSSFLAWYQQKPGQAPRLLIYGAGSRATGVPDRFSGSGYGTDFSLTISRLELEDFAVYYCQQYDRSQITFGQGTRLEIK | 17.6 |
| Ab083 (antibody, V domains shown) VH: not shown VL: AIQLTQSPSSLSASVGDRVTISCRASQSITSYLNWYQQKPGKAPNLLIYAASSLQSGVPSRFSGSGSGTDFTLTIAGLQPEDFATYYCQQFDSYPFTFGGGTKLEIK | 20.2 |
| Ab037 (antibody, V domains shown) VH: EVQLLESGGGLVQPGGSLRLSCAASGFTFSSYEMNWVRQAPGKGLEWVSSISSSSRYADVANSVVGRFTISRDNSKNTLYLQMNSLRAEDTAVYYCARGEWLDHFDYWGQGTLVTVSS VL: QSVLTQPPSASGTPGQRVTISCSGSSSNIGNSAVNWYQQLPGTAPKLLIYDNNKRPSGVPDRFSGSKSGTSASLAISGLRSEDEADYYCQVWDSGTAVFGGGTKLTVLG | 1.4 |
| Ab053 (antibody, V domains shown) VH: not shown VL: QSALTQPRSVSESPGKTVTISCTGSGGSIGSNYVQWYQQRPGSAPTTVIFEDNRRPSGVPDRFSGSIHSSSNSASLTISGLKTEDEADYYCQSYVGTIVVFGGGTKVTVL | 1.5 |
| Ab062 (antibody, V domains shown) VH: QVQLQQWGAGLLKPSETLSLTCAVYGGSFSGYYWSWIRQPPGKGLEWIGEINHSGSTNYNPSLKSRVTISVDTSKNQFSLKLSSVTAADTAVYYCARGPSGWYIREFDYWGQGTLVTVSS VL: QSVLTQPPSVSGAPGQRVTISCTGSSSNIGAGYDVHWYQQLPGTAPKLLIYGNSNRPSGVPDRFSGSKSGTSASLAITGLQAEDEADYYCQSYDSSLSGSGVFGGGTKVTVL | 1.1 |
